PMC7393355, “A FRET-based screening method to detect potential inhibitors of the binding of CNNM3 to PRL2” (Scientific Reports, 2020)

Tests used:
PRL3 (Homo sapiens) = PRL3 (Homo sapiens) (UniProt O75365); conditions: cited from earlier work
[1] = target: CNNM3 CBS domain (residues 301-452) with YPet at its C-terminus (UniProt Q8NE01); experiment: FRET competition (inhibition) assay; conditions: CNNM3-YPet 200 nM, CyPet-PRL2 200 nM, pre-incubation 20 min at R.T., control without competitor est. 98%, n = 6, read off a plot
Chain of CNNM3 CBS domain (residues 301-452) with YPet at its C-terminus (Q8NE01 301-452): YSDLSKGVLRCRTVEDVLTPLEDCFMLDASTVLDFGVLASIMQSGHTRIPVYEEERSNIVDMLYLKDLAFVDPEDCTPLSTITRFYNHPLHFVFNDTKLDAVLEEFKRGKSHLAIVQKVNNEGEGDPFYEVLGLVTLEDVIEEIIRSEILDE

Chain of non-fluorescence protein-tagged PRL2 (Q12974 whole entry, stated change not applied): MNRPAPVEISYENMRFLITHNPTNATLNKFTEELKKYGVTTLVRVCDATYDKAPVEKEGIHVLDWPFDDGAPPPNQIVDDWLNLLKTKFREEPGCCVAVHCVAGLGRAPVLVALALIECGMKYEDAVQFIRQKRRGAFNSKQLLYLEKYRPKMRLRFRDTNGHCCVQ
Chain of CNNM3 (Q8NE01 whole entry): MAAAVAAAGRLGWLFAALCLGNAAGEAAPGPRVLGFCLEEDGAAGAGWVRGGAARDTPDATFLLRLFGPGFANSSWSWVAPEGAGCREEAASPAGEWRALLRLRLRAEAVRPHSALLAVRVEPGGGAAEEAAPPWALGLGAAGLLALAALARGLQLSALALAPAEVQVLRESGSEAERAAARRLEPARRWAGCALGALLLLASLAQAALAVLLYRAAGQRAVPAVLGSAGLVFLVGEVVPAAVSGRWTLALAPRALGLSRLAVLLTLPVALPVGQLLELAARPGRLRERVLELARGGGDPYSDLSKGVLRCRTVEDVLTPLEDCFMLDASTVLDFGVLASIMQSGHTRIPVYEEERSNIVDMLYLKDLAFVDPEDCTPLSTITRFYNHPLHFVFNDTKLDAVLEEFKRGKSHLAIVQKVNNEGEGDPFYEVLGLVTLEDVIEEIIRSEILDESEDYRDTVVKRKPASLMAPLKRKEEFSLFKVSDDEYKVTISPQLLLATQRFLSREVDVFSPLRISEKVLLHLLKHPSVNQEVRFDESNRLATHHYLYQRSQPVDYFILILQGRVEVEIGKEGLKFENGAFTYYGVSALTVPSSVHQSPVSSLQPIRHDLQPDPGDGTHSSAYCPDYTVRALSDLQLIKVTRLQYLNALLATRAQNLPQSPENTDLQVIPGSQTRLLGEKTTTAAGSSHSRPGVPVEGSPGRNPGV
Chain of PRL3 (Homo sapiens) (O75365 1-170 C104E): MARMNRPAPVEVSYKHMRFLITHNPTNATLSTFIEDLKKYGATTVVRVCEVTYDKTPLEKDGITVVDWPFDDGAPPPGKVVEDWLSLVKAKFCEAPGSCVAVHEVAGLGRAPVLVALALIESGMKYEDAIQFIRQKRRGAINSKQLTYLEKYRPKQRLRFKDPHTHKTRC

Row | Substance | Kd (PRL3 (Homo sapiens)) [nM] | response ([1]; 1 µM untagged competitor, parent: est. 15) [%] | response ([1]; 10 µM untagged competitor, parent: est. 11) [%]
1 | CNNM3 (from UniProt Q8NE01) | 2800 |  | 
2 | non-fluorescence protein-tagged PRL2 (from UniProt Q12974-1) C107E |  | 97 | 76
